Where a chain is given by its changes, count along the chain named.
Columns and labels:
[1] = tested on: T1, MBP-ZC3H14 full-length S475A mutant
T1 sequence: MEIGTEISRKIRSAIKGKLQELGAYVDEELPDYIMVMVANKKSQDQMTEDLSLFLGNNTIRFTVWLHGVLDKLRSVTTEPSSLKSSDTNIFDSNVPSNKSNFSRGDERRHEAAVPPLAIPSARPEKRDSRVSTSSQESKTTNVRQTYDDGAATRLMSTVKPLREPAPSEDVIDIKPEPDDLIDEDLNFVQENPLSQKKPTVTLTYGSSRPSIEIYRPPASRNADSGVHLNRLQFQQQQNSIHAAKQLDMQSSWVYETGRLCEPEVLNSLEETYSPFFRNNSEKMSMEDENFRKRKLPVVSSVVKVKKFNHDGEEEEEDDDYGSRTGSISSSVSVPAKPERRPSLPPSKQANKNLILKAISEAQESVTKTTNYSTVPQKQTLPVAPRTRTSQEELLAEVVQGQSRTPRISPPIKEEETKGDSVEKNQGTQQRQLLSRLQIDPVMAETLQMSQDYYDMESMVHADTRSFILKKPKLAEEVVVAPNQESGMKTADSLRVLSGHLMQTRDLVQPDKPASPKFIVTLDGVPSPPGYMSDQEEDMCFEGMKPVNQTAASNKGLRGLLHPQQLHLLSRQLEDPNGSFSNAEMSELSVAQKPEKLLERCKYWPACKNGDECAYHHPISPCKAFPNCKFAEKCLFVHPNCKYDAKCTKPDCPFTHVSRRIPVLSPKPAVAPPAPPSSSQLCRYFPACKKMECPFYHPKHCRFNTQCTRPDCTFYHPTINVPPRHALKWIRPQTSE

[2] = tested on: T2, MBP-ZC3H14 full-length wildtype (residues 1-736)
T2 sequence: T1 sequence with A475S

Cdk13 (694-1039) / Cyclin T1 (1-272, T149E) kinase complex
anti-thiophosphorylation immunoblot [1]: CDK13 directly phosphorylates ZC3H14 WT but not ZC3H14 S475A | in vitro kinase assay P32 counts per minute minus time zero [1]: CDK13 directly phosphorylates ZC3H14 WT but not ZC3H14 S475A | anti-thiophosphorylation immunoblot [2]: CDK13 directly phosphorylates ZC3H14 WT but not ZC3H14 S475A | in vitro kinase assay P32 counts per minute minus time zero [2]: CDK13 directly phosphorylates ZC3H14 WT but not ZC3H14 S475A
